Measurements taken from patent publication US20020022718A1, “Genes identified as required for proliferation of E. coli” (priority 1999, published 2002).

test system: Klebsiella pneumoniae; assay: Growth inhibition by induced E. coli antisense RNA in Klebsiella pneumoniae; assay type: cell-based; design: key: +: a positive in Table V below means that at least 10 fold more cells were required to observe a colony on the induced plate than on the non-induced plate; −: If there was no effect of antisense RNA expression in a microorganism, the clone is minus in Table V below; conditions: antisense RNA expression induced with IPTG, serial dilution plating
Procedure, shortened: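 Overnight cultures were diluted 10^2 to 10^8-fold and spotted on selective plates with or without 1 mM IPTG to induce antisense RNA from transformed E. coli sequences. After overnight growth, induced vs uninduced was scored as the log difference in the highest dilution giving colonies. No effect scores 0 (or minus); a positive score means at least 10-fold more cells were needed.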

Row | Molecule | Sensitivity of K. pneumoniae to antisense nucleic acid (growth inhibition, induced vs. uninduced)
1 | EcXA181: antisense clone insert to E. coli ppc (nucleic acid, listed as Escherichia coli) antisense: CCCGGCTGGGTTTTTTCAAGTTTACGCAGGGGTGCGGGCGATCACTTCCGGGTTGCTGGCAGCTTCGCCTTTCGGCGAAATGCTGTGGT | −
2 | EcXA163: antisense clone insert to E. coli yidC (nucleic acid, listed as Escherichia coli) antisense: GAAGAGATGTTCAGGTTTTCGTTATCGGCAATGGTATCGAACTTGTATTTCTCATACTTCTCGTCAGGCGTGGAGTACGCCGCGCCACGGAA | −
3 | EcXA166: antisense clone insert to E. coli yihE (nucleic acid, listed as Escherichia coli) antisense: AAACGCATGGCGCGTAAAGGTTCAATCAGTCCGATTTCAGCGGTGTCGAACTCGCTAAATTCTTCA | −
4 | EcXA169: antisense clone insert to E. coli rpsE (nucleic acid, listed as Escherichia coli) antisense: AGAGCTGTGAAGGAGAAAATACGACCACCTTTAACGGTTTTAGATACGCGGTTTACCGCGATCAGCTTTTCCTGCAGTTCGCCAGCTTGTTTTTCGATGTGAGCCATCTTACACCTCT | −
5 | EcXA180: antisense clone insert to E. coli yjcF (nucleic acid, listed as Escherichia coli) antisense: TGTGACAGAGTGGTTATCGTTAATCAGGCAAAGAGGGAAAAACATATTATTTAAACCATTATAGCGCATAAAATATCCTTATAATTAACAAGAAAGAAAAGGCATATTCTCTGCATTATCATTTTCTACGACTGTCAAAAATCGCTCATTTTTTAATGAGTTTATTTGTTTAATATTATGGGAAAAGGTGATGCATTTGGGAGAGGAAGAGTATTCCCCGGTCAGACGACCGGGGAAGGGG | −
6 | EcXA173: antisense clone insert to E. coli yhhJ (nucleic acid, listed as Escherichia coli) antisense: GCCACGCCCAGCATAAACAGCGGGATCGAGCCTTCAATCGGTACGCCCAGTACACCTTTCACCATCAGCACCAGCGATAATCC | −
7 | EcXA176: antisense clone insert to E. coli yjdH (nucleic acid, listed as Escherichia coli) antisense: TAGTTATTGGCTGTTTTGAGAATGTAATCTTCCAACTGCTTATAACTCTTCAGATGCAATAATCCGAGAATCACATGCAATTTATTCATAAATTCGTGGGATCGTTCACGAAGTGCGTCAGCATAGTTGACCAGACCGTCGAGTCGCTGCATCAGTTTACGTA | −
8 | EcXA168: antisense clone insert to E. coli b1721 (nucleic acid, listed as Escherichia coli) antisense: GAGGAACCGTGTGACACACAAAGGGTGATTATTTTCCATTGCGGCGTATAATCCTGGCTCACCATCATGTATTTTCATGGCTAAAATACTCATCACCAGTTTTTTGTTTAAAAGCTCTTGTGCTATTGGAGTGGTTAATGCATTCAGAAAGATATCGATTATTTCATCGAATCCATACAACATGGAGATATAAAGTCCAGGTGTTTCGTT | −
9 | EcXA171: antisense clone insert to E. coli b0876 (nucleic acid, listed as Escherichia coli) antisense: AGCGCCGGTAACGCCCGTTAAATGTTCTCGTTCGGCTTCCCGATCGTTATTCAACAGGCTGCGTACCGTAGCGGCATATTTCTTCCCTGCTTCATCGCCATC | −
10 | EcXA179: antisense clone insert to E. coli valV (nucleic acid, listed as Escherichia coli) antisense: CGAACCAACGACCCCCACCATGTCAAGGTGGTGCTCTAACCAACTGAGCTATGAACGCAACGTTGTAGGTGACAACGGGGACGAATATTAGCGGCAGAGTGGGAAGGTGGCAAGAGGCAAAACGTAATTTTCTGCGCTATTTCGACCGTTTGCAGAGCTTTTAAGCAAATTGGCTATATTTTGTTGATTTGCAAGGGTGATTTTTATTCAGGATCGCATTTACATCTGATACAACCC | −
11 | EcXA165: antisense clone insert to E. coli ybeJ (nucleic acid, listed as Escherichia coli) antisense: ACTTATCAAACCATTTTTCCGCTTCACCGGAGGTCTGCACCTGAGCGATGGTGTCATCCATCAGCTTTTTGA | −
12 | EcXA175: antisense clone insert to E. coli pykA (nucleic acid, listed as Escherichia coli) antisense: TAGCTTCTTCCACATTGTCGAACTGAACGTCCAGACGGTGTTTAGAAACGTTGATGCTCGGGATTTTTTCCGCACCCAGGCAAACGCGCGCCATGGCTGCAACGGTTTCTGACGGATACTG | −
13 | EcXA178: antisense clone insert to E. coli rpsT (nucleic acid, listed as Escherichia coli) antisense: CTGGAGATTGAGTAGATATTCTTGTTCAGAATGTATCAGCCCGATGGTTCTACGATTCTTAAGCCACGAAGAGTTCAGATAGTACAACGGCATGTCTCTTTTGACTATCTGGCAACCCGGCAGTGTGTTCTCTCACGCATCACAAAAGCAGCAGGCATAAAAAAACCCGCTTGCGCGGCTTTTTCACAAAGCTTCAGCAAATTGGCGATTAAGCCAGTTTGTTGATCTGTGCAGTCAGGTTAGCCTTATGACGTGCAGCTTTGTTTTTGTGGATCAAACCTTTAGCAGCCTGACGGTCCACGATCGGTTGCATTTCGTT | −
14 | EcXA162: antisense clone insert to E. coli yjgV (nucleic acid, listed as Escherichia coli) antisense: AAAGGTTCGGCAAAAGCCATAACCTTTTCGTCAGCTTTGGCCGGATAAGGGACACATTGCGACGTTTCGACCATTTTATAACGGGTAAAACCACCATCAACATGAGGGAAATACATGGCACTGCCAAAAAAACGCATATCTGTACACTGATTCTCGTTATGTTCAATGCAGTATTTGCAGTGACCGCACGGTTTAGACGGATTAATGGCTACCGTTTGCCCTTCATGTAATTCTGA | −
15 | EcXA182: antisense clone insert to E. coli tktA (nucleic acid, listed as Escherichia coli) antisense: TCGCGAACACCGTAGTGGATGTAGTTACCCGCAGCATCTTCGTTGATTGCTTTAGAACCAGACCACAGGGTCAGGTTAGACGGCGCCAGGTCAGCAGAACCGCCGAGGAATTCCGGCAACAGCGGACCGAACGCTTCGAT | −
16 | EcXA164: antisense clone insert to E. coli glpC (nucleic acid, listed as Escherichia coli) antisense: TGTCGACATTCAGCACTTCCGGGTATTCGTCGCGCAGGGCAAATGTACAGGTTGAGGAGGTG | −
17 | EcXA167: antisense clone insert to E. coli gatB (nucleic acid, listed as Escherichia coli, misc_feature (1)...(143): n = A,T,C or G, antisense clone insert to E. coli gatB) antisense: TATAGGGGNCTATTTCATTAACCCGACACTGGATTAATTCAACAGGAATATTATGATTCTGACACAACTCTTTAATTTCTTCCGCCGCCATCGTAGAGGTCGCAACCGCGCCTCCGCAAGCGACAATAATCTTGCGTTTCATA | −
18 | EcXA174: antisense clone insert to E. coli endA (nucleic acid, listed as Escherichia coli) antisense: GCCNGGCGGGAACCGACATGTTCCCACTCTACGCCGGCTGGCGCGGTTTTCATTTTTGCGCACCTGATAGCCGCACGATTGCAGATCAACAACGCCTTTTTTG | −
